Reference: patent US10253078 (ZEALAND PHARMA A S, dated 2019)
Read-outs that look alike come from different tables or passages of the source. Starred links: 1 amine or outer side, 2 acyl side, 3 side chain; linkers in the order of their positions; H or OH if unused. Non-standard residues stand in square brackets, D forms with d. Groups on a side chain read outwards from the residue. *: point of attachment. C20 diacid = O=C(O)CCCCCCCCCCCCCCCCCCC(=O)*; γGlu = O=C(O)[C@H](CCC(=O)[*:2])N[*:1]; Aib = CC(C)(N)C(=O)O

T1: human GIP receptor (human, UniProt P48546 22-466)
T1 sequence (looked up): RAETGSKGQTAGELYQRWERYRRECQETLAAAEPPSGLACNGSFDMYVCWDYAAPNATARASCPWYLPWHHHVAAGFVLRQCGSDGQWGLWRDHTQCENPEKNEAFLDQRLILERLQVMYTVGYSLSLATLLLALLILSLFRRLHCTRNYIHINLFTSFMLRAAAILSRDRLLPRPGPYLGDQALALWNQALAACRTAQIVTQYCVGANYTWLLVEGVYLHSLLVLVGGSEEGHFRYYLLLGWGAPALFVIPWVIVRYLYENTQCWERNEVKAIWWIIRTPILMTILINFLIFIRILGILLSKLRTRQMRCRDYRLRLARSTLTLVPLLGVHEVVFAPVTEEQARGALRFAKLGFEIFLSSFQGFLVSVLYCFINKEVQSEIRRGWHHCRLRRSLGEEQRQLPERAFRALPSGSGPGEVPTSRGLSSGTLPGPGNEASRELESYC

B1: Compound 14 (peptide)
peptide: H-Y[Aib]EGTFISDYSIELEKIAQRAFVEWLLAQK([Peg3-Peg3-γGlu-C20 diacid])-NH2
B2: Compound 40 (peptide)
peptide: H-Y[Aib]EGTFISDYSIELDKK([Peg3-Peg3-γGlu-C20 diacid])AAQAFIEWLLAQGPSSGAPPPS-NH2
B3: Compound 16 (peptide)
peptide: H-Y[Aib]EGTFISDYSIELDKIAAQDFVNWLLAGPSSGAPPPSK([Peg3-Peg3-γGlu-C20 diacid])-NH2
B4: Compound 12 (peptide)
peptide: H-Y[Aib]EGTFISDYSIELEKK([Peg3-Peg3-γGlu-C20 diacid])AQRAFVEWLLAQGPSSGAPPPS-NH2
B5: Compound 18 (peptide)
peptide: H-Y[Aib]EGTFISDYSIELDKK([Peg3-Peg3-γGlu-C20 diacid])AQRAFIEWLLAQGPSSGAPPPS-NH2
B6: Compound 13 (peptide)
peptide: H-Y[Aib]EGTFISDYSIELEKIAQRAFVEWLLAQGPSSGAPPPSK([Peg3-Peg3-γGlu-C20 diacid])-NH2
B7: Compound 17 (peptide)
peptide: H-Y[Aib]EGTFISDYSIELDKK([Peg3-Peg3-γGlu-C20 diacid])AQRAFVEWLLAQGPSSGAPPPS-NH2
B8: Compound 41 (peptide)
peptide: YAEGTFISDYSIELDKKAAQAFIEWLLAQGPSSGAPPPS
modifications: Aib at 2; Lys 17 side chain acylated: K((19-Carboxy-nonadecanoyl)-[(Piperazine-1-yl)-acetyl]-Peg3-Peg3); C-terminal amide (-NH2)
B9: Compound 8 (peptide)
peptide: H-Y[Aib]EGTFISDYSIELDKK([Peg3-Peg3-γGlu-C20 diacid])HQQDFVNYLLAQGPSSGAPPPS-NH2
B10: Compound 15 (peptide)
peptide: H-Y[Aib]EGTFISDYSIELDKK([Peg3-Peg3-γGlu-C20 diacid])AAQDFVNWLLAGPSSGAPPPS-NH2

Legend:
Experiment in all cases: cell-based or functional assay
human GIP receptor [1] = target: T1, human GIP receptor
human GLP-1 receptor = human GLP-1 receptor (human, UniProt P43220 24-463)
[2] = target: human GLP-1 receptor (human) (UniProt P43220)
human GIP receptor [3] = target: T1, human GIP receptor; remark: listed apart in the source
human GIP receptor [4] = target: T1, human GIP receptor; remark: listed apart in the source

human GLP-1 receptor (human), sequence (P43220 24-463): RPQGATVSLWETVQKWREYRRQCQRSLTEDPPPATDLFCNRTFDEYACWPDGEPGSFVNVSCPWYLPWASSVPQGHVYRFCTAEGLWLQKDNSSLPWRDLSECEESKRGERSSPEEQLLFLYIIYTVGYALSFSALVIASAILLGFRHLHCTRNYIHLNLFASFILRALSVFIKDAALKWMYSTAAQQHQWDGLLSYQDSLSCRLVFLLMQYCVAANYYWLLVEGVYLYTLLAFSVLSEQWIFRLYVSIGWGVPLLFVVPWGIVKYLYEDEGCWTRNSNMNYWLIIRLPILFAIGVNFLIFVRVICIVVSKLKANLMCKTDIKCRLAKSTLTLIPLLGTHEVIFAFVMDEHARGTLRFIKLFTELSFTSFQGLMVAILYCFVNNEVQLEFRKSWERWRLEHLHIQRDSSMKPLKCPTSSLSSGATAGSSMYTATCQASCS

Molecule | EC50, hGIP-R level of cAMP (HEK293 cells expressing human GIP R) (human GIP receptor [1]) [nM] | EC50 hGLP1 R (cAMP, HEK293 cells expressing the GLP-1R) (human GLP-1 receptor) [nM] | EC50 hGLP1 R (cAMP, HEK293 cells expressing the GLP-1R) [2] [nM] | EC50, hGIP-R level of cAMP (HEK293 cells expressing human GIP R) (human GIP receptor [3]) [nM] | EC50 hGIP R (cAMP, HEK293 cells expressing the GIP R) (human GIP receptor [4]) [nM]
human GIP (from UniProt P09681 52-93) (ligand) | 0.003 | > 100 | – | – | –
Exendin-4 (from UniProt P26349 48-86) (peptide) | – | – | 0.004 | – | –
B1 | – | > 10 | – | 0.024 | 0.014
B2 | – | > 10 | – | 0.01 | 0.007
B3 | – | > 10 | – | 0.016 | 0.012
B4 | – | > 3 | – | 0.009 | 0.009
B5 | – | > 3 | – | 0.006 | 0.007
B6 | – | > 10 | – | 0.014 | 0.008
B7 | – | > 3 | – | 0.007 | 0.016
B8 | – | > 10 | – | 0.014 | 0.01
B9 | – | > 10 | – | 0.009 | 0.019
B10 | – | > 100 | – | 0.012 | 0.024
